The values below come from patent US20240018256A1 (JUNO THERAPEUTICS, published 2024).

The target in test [1] is T1, human CD19 (human, UniProt P15391 20-556).
T1 sequence: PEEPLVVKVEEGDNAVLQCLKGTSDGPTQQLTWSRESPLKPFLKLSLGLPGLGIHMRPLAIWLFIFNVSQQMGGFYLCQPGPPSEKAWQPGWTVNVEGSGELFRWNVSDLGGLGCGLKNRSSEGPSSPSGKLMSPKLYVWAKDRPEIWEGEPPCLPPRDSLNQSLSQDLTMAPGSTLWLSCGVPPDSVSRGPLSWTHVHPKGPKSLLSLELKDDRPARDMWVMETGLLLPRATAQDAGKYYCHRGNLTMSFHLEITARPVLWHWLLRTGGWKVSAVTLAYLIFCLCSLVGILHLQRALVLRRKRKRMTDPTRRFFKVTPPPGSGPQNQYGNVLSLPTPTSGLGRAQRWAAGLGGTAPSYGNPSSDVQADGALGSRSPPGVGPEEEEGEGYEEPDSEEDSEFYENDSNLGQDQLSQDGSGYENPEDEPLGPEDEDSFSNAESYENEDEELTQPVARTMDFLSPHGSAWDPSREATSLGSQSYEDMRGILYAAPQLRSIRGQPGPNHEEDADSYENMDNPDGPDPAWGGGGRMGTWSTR
In words: flow cytometry on CD19-expressing cells (n = 1). An excerpt: Various clones were titrated and their binding affinity (EC50) to various CD19-expressing cells assessed by flow cytometry.
A general note: In flow cytometry, cells or beads pass a laser one at a time.

In test [2] the target is T1, human CD19. In words: flow cytometry competition for binding with FMC63 (n = 2).
Test [3] deals with T1, human CD19. In words: flow cytometry on CD19-expressing cells (n = 3).
Test [4] deals with T1, human CD19. Kind of test: flow cytometry on CD19-expressing cells (n = 4).
Test [5] deals with T1, human CD19. Kind of test: flow cytometry competition for binding with FMC63 (n = 1).
The target of test [6] is T1, human CD19. In words: flow cytometry, scFv titrated on CD19-expressing K562 cells (FIG. 4, another plate).
The target of test [7] is T1, human CD19. Kind of test: flow cytometry, HIS-tagged scFv bacterial supernatant on CD19-transfected HEK293 cells (FIG. 8A). An excerpt:
(§1) A third scFv library was generated by shuffling the VH sequences from the selection in (a) with the VL sequences resulting from the selection in (b). […] Binding by the selected scFv clones to CD19-expressing cells was confirmed by flow cytometry using bacterially-produced supernatant. The selected scFv pools were cloned into E. coli expression vectors and produced as HIS-tagged scFvs. Binding of individual clones to CD19-transfected HEK293 cells was detected with anti-HIS-Alexa647 conjugate by flow cytometry.

Test [8] deals with T1, human CD19. In words: flow cytometry, scFv titrated on CD19-expressing K562 cells (FIG. 4, one plate).
For test [9], the target named is T1, human CD19. In words: flow cytometry, scFv titrated on CD19-expressing K562 cells (FIG. 3A).
Test [10] has as its target T1, human CD19. In words: flow cytometry competition for binding with FMC63 (n = 3).
Test [11] addresses T1, human CD19. In words: flow cytometry, HIS-tagged scFv bacterial supernatant on CD19-transfected HEK293 cells (FIG. 8B).
Description: as §1

B1: Clone 505 scFv (scFv)
scFv: EVQLVESGGGLVQPGRSLRLSCAASGFTFDDYAMHWVRQAPGKGLEWVSGISWNSGRIGYADSVKGRFTISRDNAKNSLFLQMNSLRAEDTAVYYCARDQGYHYYDSAEHAFDIWGQGTMVTVSSQSVLTQPRSLSGSPGQSVTIACTGASTDVGGYNYVSWYQQHPGKAPKLMIYDVNKRPSGVPDRFSGSKSGNTAFLTISGLQAEDEADYYCCSYAGSYTFEVFGGGTKLTVL
For B1, in test [1], the EC50 (usually the concentration giving half of the maximal effect) is 0.139 µM.

B2: Clone 227 scFv (scFv)
scFv: EVQLVQSGGGLVQPGRSLRLSCAASGFTFDDYAMHWVRQAPGKGLEWVSGISWNSGSIGYADSVKGRFTISRDNAKNSLYLQMNSLRAEDTAVYYCARDQGYHYYDSAEHAFDIWGQGTVVTVSSGGGGSGGGGSGGGGSDIQLTQSPSTLSASVGDRVTITCRASQSISRWLAWYQQKPGKAPKLLIYDASNLETGVPSRFSGSGSGTDFTFTISSLQPEDIATYYCQQYDNLPLTFGGGTKVEIK
notes: Human scFv
In the case of B2, in test [2], the IC50 (as a rule, the concentration at which inhibition is half-maximal) was 0.0561 µM. Besides, it took 0.0318 µM to reach a half-maximal effect in test [3] (EC50).

B3: Clone 328 scFv (scFv)
scFv: QVQLVESGGGLVQPGRSLRLSCAASGFTFDDYAMHWVRQAPGKGLEWVSGISWNSGRIGYADSVKGRFTISRDNAKNSLFLQMNSLRAEDTAVYYCARDQGYHYYDSAEHAFDIWGQGTVVTVSSGGGGSGGGGSGGGGSQSALTQPASVSGSPGHSITISCTGTRSDVGGFDYVSWYQHNPGKAPKLIIYDVTKRPSGVSNRFSGAKSGITASLTISGLQAEDEADYYCTSYRPGPTFVFGTGTKLTVL
notes: Human scFv
As to B3, the EC50 in [4] is 0.0109 µM. This molecule registered an IC50 in test [5] of 0.0329 µM.

B4: Clone 1300 scFv (scFv)
scFv: QMQLVQSGGGLVQPGRSLRLSCAASGFTFDDYAMHWVRQAPGKGLEWVSGISWNSGSIGYADSVKGRFTISRDNAKNSLYLQMNSLRAEDTAVYYCARDQGYHYYDSAEHAFDIWGQGTVVTVSSGGGGSGGGGSGGGGSAIRMTQSPSTLSASVGDRVTITCRASQSISHYLAWYQQKPGKAPKLLIFDASRLASGVPSRFSGSGSGTDFTLTISSLQPEDFATYYCQQSYGAPMFTFGPGTRVDLK
notes: Human scFv
As for B4, the IC50 in test [2] stood at 0.0039 µM. Besides, the EC50 in [3] worked out at 0.0013 µM.

B5: Clone 184 scFv (scFv, V domains shown)
VH: QVQLVESGGGLVQPGRSLRLSCAASGFTFDDYAMHWVRQAPGKGLEWVSGISWNSGRIGYADSVKGRFTISRDNAKNSLFLQMNSLRAEDTAVYYCARDQGYHYYDSAEHAFDIWGQGTMVTVSS
As for B5, the EC50 in test [1] and in test [6] was 0.114 µM throughout.

B6: Clone 272 scFv (scFv)
scFv: EVQLVESGGGLVQPGRSLRLSCAASGFTFDDYAMHWVRQAPGKGLEWVSGISWNSGRIGYADSVKGRFTISRDNAKNSLFLQMNSLRAEDTAVYYCARDQGYHYYDSAEHAFDIWGQGTVVTVSSGGGGSGGGGSGGGGSQSVLTQPPSVSAAPGQKVTISCSGSSSNIGNNYVSWYQQLPGTAPKLLIYDNNKRPSGIPDRFSGSKSGTSATLGITGLQTGDEADYYCGTWDSSLNRDWVFGGGTKLTVL
notes: HIS- or FLAG-tagged
In the case of B6, in test [7], the binding result is listed as “binds”.

B7: Clone 1 scFv (scFv)
scFv: EVQLVESGGGLVQPGRSLRLSCAASGFTFDDYAMHWVRQAPGKGLEWVSGISWNSGRIGYADSVKGRFTISRDNAKNSLFLQMNSLRAEDTAVYYCARDQGYHYYDSAEHAFDIWGQGTMVTVSSGGGGSGGGGSGGGGSQSALTQPASVSGSPGQSITISCTGTSSDVGAYNFVSWYQQLPGTAPKFLIYDNNKRPPGIPDRFSGSKSGTSATLGITGLQTGDEADYYCATWDSGLSAVVFGGGTKLTVL
notes: Human scFv
On to B7, for which the EC50 in test [8] and in [1] was 0.214 µM each time.

B8: Clone 192 scFv (scFv)
scFv: EVQLVESGGGLVQPGRSLRLSCAASGFTFDDYAMHWVRQAPGKGLEWVSGISWNSGRIGYADSVKGRFTISRDNAKNSLFLQMNSLRAEDTAVYYCARDQGYHYYDSAEHAFDIWGQGTMVTVSSGGGGSGGGGSGGGGSQAVLTQPRSVSGSPGQSVTISCTGISSGVDSHRYVSWYQHHPGKAPKLMIYDFSKRPSGVPDRFSGSKSGNTASLTISGLQAEDEADYYCCSYAAISPNYVFGTGTKLTVL
notes: Human scFv
Take B8: the EC50 is 0.0128 µM in test [9] and 0.012 µM in test [6].

B9: Clone 192B scFv (scFv)
scFv: QVQLVESGGGLVQPGRSLRLSCAASGFTFDDYAMHWVRQAPGKGLEWVSGISWNSGRIGYADSVKGRFTISRDNAKNSLFLQMNSLRAEDTAVYYCARDQGYHYYDSAEHAFDIWGQGTMVTVSSGGGGSGGGGSGGGGSQAVLTQPRSVSGSPGQSVTISCTGISSGVDSHRYVSWYQHHPGKAPKLMIYDFSKRPSGVPDRFSGSKSGNTASLTISGLQAEDEADYYCSSYAAISPNYVFGTGTKLTVL
notes: Human scFv
With B9, the EC50 in test [3] stood at 0.0077 µM. In addition, the IC50 in [10] was 0.0157 µM.

B10: Clone 506 scFv (scFv)
scFv: EVQLVESGGGLVQPGRSLRLSCAASGFTFDDYAMHWVRQAPGKGLEWVSGISWNSGRIGYADSVKGRFTISRDNAKNSLFLQMNSLRAEDTAVYYCARDQGYHYYDSAEHAFDIWGQGTMVTVSSGGGGSGGGGSGGGGSQLVLTQPPSVSGSPGQSVTFSCTGASSDVGGYDHVSWYQHHPGKGPKLLIYDVSKRPSGVPDRFSGSKSGNTASLTISGLQAEDEADYYCCSFAGYYTYWLFGGGTKVTVL
notes: Human scFv
Take B10: the midpoint of the response in test [1], the EC50, lay at 0.179 µM.

B11: Clone 285 scFv (scFv)
scFv: EVQLVESGGGLVQPGRSLRLSCAASGFTFDDYAMHWVRQAPGKGLEWVSGISWNSGRIGYADSVKGRFTISRDNAKNSLFLQMNSLRAEDTAVYYCARDQGYHYYDSAEHAFDIWGQGTVVTVSSGGGGSGGGGSGGGGSQSALTQPASVSGSPGQSITISCTGTSSDLGGYNYVSWYQHRPGKAPKLIIYDVTVRPSGVSDRFSGSKSGNTASLTISGLQAEDEADYYCGSYTSSSTLLWVFGGGTKLTVL
notes: Human scFv
B11 came in with a concentration giving a half-maximal response (EC50) in test [4] of 0.0025 µM. Moreover, in [10], the IC50 was found to be 0.0094 µM.

B12: Clone 302 scFv (scFv)
scFv: QVQLVESGGGLVQPGRSLRLSCAASGFTFDDYAMHWVRQAPGKGLEWVSGISWNSGRIGYADSVKGRFTISRDNAKNSLFLQMNSLRAEDTAVYYCARDQGYHYYDSAEHAFDIWGQGTVVTVSSGGGGSGGGGSGGGGSQSALTQPASVSGSPGQSITISCTGTSSDLGGYNYVSWYQHRPGKAPKLIIYDVTVRPSGVSDRFSGSKSGNTASLTISGLQAEDEADYYCGSYTSSSTLLWVFGGGTKLTVL
notes: HIS- or FLAG-tagged
As to B12, in test [11], the binding result is “binds”.

B13: Clone 283 scFv (scFv)
scFv: QVQLVESGGGLVQPGRSLRLSCAASGFTFDDYAMHWVRQAPGKGLEWVSGISWNSGRIGYADSVKGRFTISRDNAKNSLFLQMNSLRAEDTAVYYCARDQGYHYYDSAEHAFDIWGQGTVVTVSSGGGGSGGGGSGGGGSQSALTQPASVSGSPGQSITISCTGTSSDLGGYNYVSWYQHRPGKAPKLIIYDVTVRPSGVSDRFSGSKSGNTASLTISGLQAEDEADYYCGSYTSSSTLLWVFGGGTKLTVL
notes: HIS- or FLAG-tagged
Consider B13, for which the binding result in [7] is on record as “binds”.

B14: Clone 336 scFv (scFv)
scFv: QVQLVESGGGLVQPGRSLRLSCAASGFTFDDYAMHWVRQAPGKGLEWVSGISWNSGRIGYADSVKGRFTISRDNAKNSLFLQMNSLRAEDTAVYYCARDQGYHYYDSAEHAFDIWGQGTVVTVSSGGGGSGGGGSGGGGSQSALTQPASVSGSPGQSITISCTGTSSDLGGYNYVSWYQHRPGKAPKLIIYDVTVRPSGVSDRFSGSKSGNTASLTISGLQAEDEADYYCGSYTSSSTLLWVFGGGTKLTVL
notes: HIS- or FLAG-tagged
Take B14: the binding result in test [11] is “binds”.

B15: Clone 79 scFv (scFv)
scFv: EVQLVESGGGLVQPGRSLRLSCAASGFTFDDYAMHWVRQAPGKGLEWVSGISWNSGRIGYADSVKGRFTISRDNAKNSLFLQMNSLRAEDTAVYYCARDQGYHYYDSAEHAFDIWGQGTVVTVSSGGGGSGGGGSGGGGSQSVLTQPPSVSAAPGQKVTISCSGSSSNIGNNYVSWYQQLPGTAPKLLIYDNNKRPSGIPDRFSGSKSGTSATLGITGLQTGDEGDYYCGTWDISLRFGVFGGGTKVTVL
notes: Human scFv
In test [1], B15 returned an EC50 of 0.0657 µM. This molecule also returned an IC50 in test [5] of 0.103 µM.
